# Assay results taken from patent US20190345534.
# System: GzmB peptide substrate AIEFDSGc on PEG-coated iron oxide nanoparticles (GzmB-sensing synthetic biomarker)
# Factor D (Sigma), sequence (P00746 26-253): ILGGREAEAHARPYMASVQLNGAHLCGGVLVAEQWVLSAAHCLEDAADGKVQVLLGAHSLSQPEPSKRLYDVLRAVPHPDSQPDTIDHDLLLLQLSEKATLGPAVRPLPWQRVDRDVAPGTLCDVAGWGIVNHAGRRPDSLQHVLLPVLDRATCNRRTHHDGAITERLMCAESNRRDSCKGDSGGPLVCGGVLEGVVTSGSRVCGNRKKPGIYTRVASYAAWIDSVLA
# Factor I (Sigma), sequence (P05156 19-583): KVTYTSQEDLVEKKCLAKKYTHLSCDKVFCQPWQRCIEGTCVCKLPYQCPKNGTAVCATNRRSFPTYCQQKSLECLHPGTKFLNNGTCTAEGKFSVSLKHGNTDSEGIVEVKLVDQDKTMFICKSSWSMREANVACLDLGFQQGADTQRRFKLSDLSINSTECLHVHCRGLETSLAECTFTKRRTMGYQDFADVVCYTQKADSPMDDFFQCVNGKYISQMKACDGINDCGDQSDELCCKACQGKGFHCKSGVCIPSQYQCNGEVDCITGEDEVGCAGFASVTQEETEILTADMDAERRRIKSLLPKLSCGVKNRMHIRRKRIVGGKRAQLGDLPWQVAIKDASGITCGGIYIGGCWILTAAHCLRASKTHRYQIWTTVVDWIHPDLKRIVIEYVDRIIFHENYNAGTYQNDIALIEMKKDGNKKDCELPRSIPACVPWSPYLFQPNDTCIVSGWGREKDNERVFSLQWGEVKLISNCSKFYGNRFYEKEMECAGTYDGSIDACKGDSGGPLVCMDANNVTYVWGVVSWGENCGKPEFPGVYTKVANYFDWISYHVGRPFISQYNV
# MASP2 (Biomatik), sequence (O00187 16-686): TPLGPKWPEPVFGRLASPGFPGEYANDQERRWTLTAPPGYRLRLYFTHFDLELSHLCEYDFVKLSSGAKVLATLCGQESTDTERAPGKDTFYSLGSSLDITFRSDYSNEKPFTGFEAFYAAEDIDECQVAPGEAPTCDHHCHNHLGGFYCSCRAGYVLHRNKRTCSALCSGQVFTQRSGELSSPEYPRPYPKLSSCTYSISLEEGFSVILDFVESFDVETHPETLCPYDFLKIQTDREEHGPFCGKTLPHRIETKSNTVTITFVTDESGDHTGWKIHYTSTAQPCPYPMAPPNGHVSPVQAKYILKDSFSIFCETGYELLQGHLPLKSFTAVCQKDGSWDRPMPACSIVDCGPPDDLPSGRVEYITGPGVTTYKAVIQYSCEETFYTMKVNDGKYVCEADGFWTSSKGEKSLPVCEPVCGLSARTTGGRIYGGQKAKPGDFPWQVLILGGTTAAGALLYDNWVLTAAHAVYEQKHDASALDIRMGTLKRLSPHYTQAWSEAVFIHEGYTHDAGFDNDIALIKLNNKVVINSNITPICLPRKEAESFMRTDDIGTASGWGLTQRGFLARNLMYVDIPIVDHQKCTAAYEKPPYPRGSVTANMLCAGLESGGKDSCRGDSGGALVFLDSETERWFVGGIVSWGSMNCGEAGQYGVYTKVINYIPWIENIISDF
row,Substance,fluorescent intensity (in vitro protease cleavage assay)
1,MASP2 (Biomatik),Increases in fluorescent intensity were observed only in samples containing recombinant GzmB
2,Factor I (Sigma),Increases in fluorescent intensity were observed only in samples containing recombinant GzmB
3,human thrombin (HaemTech),Increases in fluorescent intensity were observed only in samples containing recombinant GzmB
4,Factor D (Sigma),Increases in fluorescent intensity were observed only in samples containing recombinant GzmB
5,mouse thrombin (HaemTech),Increases in fluorescent intensity were observed only in samples containing recombinant GzmB
